Measured values taken from patent US20090317890.

Biological target: T1, human fibrin (clot formed from human fibrinogen, Sigma, with human thrombin), P02671
T1 chain 1: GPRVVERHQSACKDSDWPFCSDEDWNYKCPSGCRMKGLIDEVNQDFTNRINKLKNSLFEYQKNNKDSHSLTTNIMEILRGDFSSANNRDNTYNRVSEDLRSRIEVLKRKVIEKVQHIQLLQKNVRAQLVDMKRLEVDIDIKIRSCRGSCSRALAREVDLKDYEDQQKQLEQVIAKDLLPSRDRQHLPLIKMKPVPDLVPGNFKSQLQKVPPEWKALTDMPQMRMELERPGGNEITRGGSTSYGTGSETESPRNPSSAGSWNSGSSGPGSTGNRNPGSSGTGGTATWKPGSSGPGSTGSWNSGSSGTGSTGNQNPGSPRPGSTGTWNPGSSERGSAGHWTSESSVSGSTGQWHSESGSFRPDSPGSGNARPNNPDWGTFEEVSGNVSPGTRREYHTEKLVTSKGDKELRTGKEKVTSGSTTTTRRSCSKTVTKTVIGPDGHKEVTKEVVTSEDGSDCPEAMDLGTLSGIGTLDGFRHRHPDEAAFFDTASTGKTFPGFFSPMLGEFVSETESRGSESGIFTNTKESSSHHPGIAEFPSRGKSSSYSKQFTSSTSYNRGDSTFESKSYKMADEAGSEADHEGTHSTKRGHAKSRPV
T1 chain 2: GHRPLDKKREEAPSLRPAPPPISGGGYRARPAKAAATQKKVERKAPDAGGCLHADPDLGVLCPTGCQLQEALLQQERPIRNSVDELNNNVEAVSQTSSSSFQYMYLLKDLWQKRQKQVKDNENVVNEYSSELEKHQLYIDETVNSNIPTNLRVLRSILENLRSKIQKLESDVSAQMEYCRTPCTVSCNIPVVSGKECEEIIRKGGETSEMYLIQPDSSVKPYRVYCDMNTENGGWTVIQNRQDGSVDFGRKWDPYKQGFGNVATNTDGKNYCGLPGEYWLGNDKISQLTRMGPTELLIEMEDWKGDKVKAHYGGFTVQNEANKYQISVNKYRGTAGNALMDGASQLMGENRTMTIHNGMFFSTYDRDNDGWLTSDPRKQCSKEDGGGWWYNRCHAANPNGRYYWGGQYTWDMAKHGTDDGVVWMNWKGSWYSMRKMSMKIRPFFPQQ
T1 chain 3: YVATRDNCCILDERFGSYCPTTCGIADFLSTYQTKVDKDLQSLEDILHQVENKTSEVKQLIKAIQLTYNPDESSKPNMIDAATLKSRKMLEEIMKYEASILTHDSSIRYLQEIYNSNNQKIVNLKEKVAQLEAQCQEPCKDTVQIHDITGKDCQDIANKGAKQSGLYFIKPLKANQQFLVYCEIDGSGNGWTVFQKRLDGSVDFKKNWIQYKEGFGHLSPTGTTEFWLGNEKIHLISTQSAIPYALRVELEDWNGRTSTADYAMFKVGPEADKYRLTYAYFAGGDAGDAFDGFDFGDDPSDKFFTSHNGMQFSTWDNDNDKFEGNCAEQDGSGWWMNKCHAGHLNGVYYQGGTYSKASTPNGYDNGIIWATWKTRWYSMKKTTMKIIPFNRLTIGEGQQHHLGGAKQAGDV

B1: recombinant zinc-dependent metalloprotease (fibrinolytic protease from metagenomic clone pES63H9) (protein)
chain: MEPEPIKTCTVLENPGYQPIHAPTDVSPQPVLAAMEAVPVPTPPPTVDAVMLFRKKWRDGKILRVHFMDGDPDVHRKVEEVAHTWSRHANVRFKFVDDPAADIRISFTQPGSWSYLGTDALRIARSQSTMNFGWLTPRSPDSEYNRVVIHEFGHALGLVHEHQNPDNGIPWNKPAVYEYYSGPPNNWSKEQVDTNLFQQYSEDQVRFTGFDRESIMLYPIPNEFTVGDFEVGWNRDLSADDKEFIGRMYPKPANELIVDDPPRASEISRYGEIDTYTFLVTQKGSYRIETDGRTDLVMLLYGPEDDTKLIAADDDSGRRLNPRITEELDWGKYTVRLQHFSQRQTGKYAVGVYRDDAAE
hydrolysis of the fibrin α-chain, SDS-PAGE time course at 37° C.: the purified enzyme completely hydrolyzed the α-chain and the γ-γ-chain at 37 °C after 1 h
hydrolysis of the fibrin β-chain, SDS-PAGE time course at 37° C.: The enzyme also partially hydrolyzed the β-chain after 30 min; however, it was not completely hydrolyzed after 2 h and even after 24 h (data not shown)
hydrolysis of the fibrin γ-γ-chain, SDS-PAGE time course at 37° C.: the purified enzyme completely hydrolyzed the α-chain and the γ-γ-chain at 37 °C after 1 h
